Laboratory results taken from patent US20230220042A1 (SHANGHAI JIAO TONG UNIVERSITY SCHOOL OF MEDICINE, published 2023).
Each block holds one molecule with its values, some of them ahead of it.

Legend:
Biotin-FcγRIIB (human) [1] = molecular target: Biotin-FcγRIIB (human) (UniProt P31994); assay: sorting of displayed Fc library on FcγRIIB, NGS
Biotin-FcγRIIB (human) [2] = molecular target: Biotin-FcγRIIB (human) (UniProt P31994); assay: FACS sorting of displayed Fc library on biotin-FcγRIIB, NGS
Biotin-FcγRIIB (human) [3] = molecular target: Biotin-FcγRIIB (human) (UniProt P31994); assay: FACS sorting of displayed Fc library on biotin-FcγRIIB, NGS; reference G236V
Biotin-FcγRIIB (human) [4] = molecular target: Biotin-FcγRIIB (human) (UniProt P31994); assay: FACS sorting of displayed Fc library on biotin-FcγRIIB, NGS; reference P271G
Biotin-FcγRIIB (human) [5] = molecular target: Biotin-FcγRIIB (human) (UniProt P31994); assay: NGS of 3T3 display library C2 flow-sorted for FcγRIIB binding
Biotin-FcγRIIB (human) [6] = molecular target: Biotin-FcγRIIB (human) (UniProt P31994); assay: NGS of 3T3 display library IgG2_C02 flow-sorted for FcγRIIB binding
Biotin-FcγRIIB (human) [7] = molecular target: Biotin-FcγRIIB (human) (UniProt P31994); assay: NGS of 3T3 display library Cmix flow-sorted for FcγRIIB binding
Biotin-FcγRIIB (human) [8] = molecular target: Biotin-FcγRIIB (human) (UniProt P31994); assay: NGS of 3T3 display library IgG2_C01 flow-sorted for FcγRIIB binding
[9] = molecular target: Biotin-FcγRIIB (human FcγRIIB, Sino Biological) (human) (UniProt P31994); assay: NGS after FACS sort of 3T3-displayed Library2 for biotin-FcγRIIB binding
[10] = molecular target: Biotin-FcγRIIB (human FcγRIIB, Sino Biological) (human) (UniProt P31994); assay: flow cytometry, 3T3 cells displaying the antibody, biotin-FcγRIIB
[11] = molecular target: Biotin-FcγRIIB (human FcγRIIB, Sino Biological) (human) (UniProt P31994); assay: NGS after FACS sort of 3T3-displayed LibraryMix for biotin-FcγRIIB binding
[12] = molecular target: Biotin-FcγRIIB (human FcγRIIB, Sino Biological) (human) (UniProt P31994); assay: flow cytometry, 3T3 cells displaying the antibody, biotin-FcγRIIB + Streptavidin-APC
[13] = molecular target: Biotin-FcγRIIB (human FcγRIIB, Sino Biological) (human) (UniProt P31994); assay: NGS after FACS sort of 3T3-displayed Library4 for biotin-FcγRIIB binding
Biotin-FcγRIIB [14] = molecular target: T1, Biotin-FcγRIIB (human, UniProt P31994 43-217, limits assumed, biotin-labelled); assay: FACS sorting of displayed Fc library on biotin-FcγRIIB, NGS
T1 construct: Bought, biotin-labelled; used at 1 µg/ml for staining and sorting; also called human FcγRIIB; CD32b
T1 sequence (looked up): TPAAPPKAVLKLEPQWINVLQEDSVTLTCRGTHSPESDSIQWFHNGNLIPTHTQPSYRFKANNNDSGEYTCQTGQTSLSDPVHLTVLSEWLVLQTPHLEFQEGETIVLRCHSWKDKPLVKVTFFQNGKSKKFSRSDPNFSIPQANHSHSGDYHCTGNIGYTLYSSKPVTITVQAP

Biotin-FcγRIIB [15] = molecular target: T1, Biotin-FcγRIIB; assay: FACS sorting of displayed Fc library on biotin-FcγRIIB, NGS; reference S298R
Biotin-FcγRIIB [16] = molecular target: T1, Biotin-FcγRIIB; assay: FACS sorting of displayed Fc library on biotin-FcγRIIB, NGS; reference P271G
Biotin-FcγRIIB [17] = molecular target: T1, Biotin-FcγRIIB; assay: FACS sorting of displayed Fc library on biotin-FcγRIIB, NGS; reference S267E

Enrichment factor (percentage after sorting/percentage before sorting) (Biotin-FcγRIIB (human) [1]): 0.84
Molecule: human IgG2 anti-mouse CD40 surface displayed antibody, Fc mutant G236D

Enrichment factor (after/before sorting) (Biotin-FcγRIIB (human) [2]): 10.3
Increased factor a (enrichment factor/wild-type enrichment factor) (Biotin-FcγRIIB (human) [2]): 13.7
Increased factor 2 c Site 2 (combined/point mutation) (Biotin-FcγRIIB (human) [3]): 30.5
Increased factor 2 c Site 1 (combined/point mutation) (Biotin-FcγRIIB (human) [4]): 2.9
Molecule: human IgG2 anti-mouse CD40 surface displayed antibody, Fc mutant P271G/G236V

percentage after 1st sorting (Biotin-FcγRIIB (human) [5]): 2.51%
percentage after 2nd sorting (Biotin-FcγRIIB (human) [5]): 5.25%
percentage after 3rd sorting (Biotin-FcγRIIB (human) [5]): 12.6%
percentage before sorting (Biotin-FcγRIIB (human) [5]): 8.97%
percentage after 1st sorting (Biotin-FcγRIIB (human) [6]): 58.4%
percentage after 2nd sorting (Biotin-FcγRIIB (human) [6]): 47.8%
percentage before sorting (Biotin-FcγRIIB (human) [6]): 56.6%
percentage after 1st sorting (Biotin-FcγRIIB (human) [7]): 1.32%
percentage after 2nd sorting (Biotin-FcγRIIB (human) [7]): 1.03%
percentage after 3rd sorting (Biotin-FcγRIIB (human) [7]): 0.4%
percentage before sorting (Biotin-FcγRIIB (human) [7]): 1.07%
percentage after 1st sorting (Biotin-FcγRIIB (human) [8]): 61.6%
percentage after 2nd sorting (Biotin-FcγRIIB (human) [8]): 54.2%
percentage before sorting (Biotin-FcγRIIB (human) [8]): 63.8%
Molecule: human IgG2 anti-mouse CD40 surface displayed antibody, wild-type Fc

Enrichment factor (percentage after sorting/percentage before sorting) [9]: 0.57
proportion of the cells capable of binding to FcγRIIB [10]: 0.23%
Enrichment factor (percentage after sorting/percentage before sorting) [11]: 0.75
proportion of the cells binding to FcγRIIB [12]: 0.34%
Enrichment factor (percentage after sorting/percentage before sorting) [13]: 1.49
Molecule: human IgG2 anti-mouse CD40 surface displayed antibody (wild-type Fc)

Enrichment factor (percentage after sorting/percentage before sorting) [11]: 10.3
Increased factor (enrichment factor/wild-type enrichment factor) [11]: 13.7
Molecule: human IgG2 anti-mouse CD40 surface displayed antibody, P271G/G236V

Enrichment factor (percentage after sorting/percentage before sorting) (Biotin-FcγRIIB (human) [1]): 0.92
Molecule: human IgG2 anti-mouse CD40 surface displayed antibody, Fc mutant S298A

Enrichment factor (after/before sorting) (Biotin-FcγRIIB [14]): 2.45
Increased factor a (enrichment factor/wild-type enrichment factor) (Biotin-FcγRIIB [14]): 3.27
Increased factor 2 c Site 2 (combined/point mutation) (Biotin-FcγRIIB [15]): 4.2
B1: human IgG2 anti-mouse CD40 surface displayed antibody, Fc mutant P271A/S298R (antibody, name in EU numbering)
light chain (with the P2A rest): DTVLTQSPALAVSPGERVTISCRASDSVSTLMHWYQQKPGQQPKLLIYLASHLESGVPARFSGSGSGTDFTLTIDPVEADDTATYYCQQSWNDPWTFGGGTKLELKRTVAAPSVFIFPPSDEQLKSGTASVVCLLNNFYPREAKVQWKVDNALQSGNSQESVTEQDSKDSTYSLSSTLTLSKADYEKHKVYACEVTHQGLSSPVTKSFNRGECGSGATNFSLLKQAGDVEENPG
heavy chain: EVQLVESDGGLVQPGRSLKLPCAASGFTFSDYYMAWVRQAPTKGLEWVASISYDGSSTYYRDSVKGRFTISRDNAKSTLYLQMDSLRSEDTATYYCGRHSSYFDYWGQGVMVTVSSASTKGPSVFPLAPCSRSTSESTAALGCLVKDYFPEPVTVSWNSGALTSGVHTFPAVLQSSGLYSLSSVVTVPSSNFGTQTYTCNVDHKPSNTKVDKTVERKCCVECPPCPAPPVAGPSVFLFPPKPKDTLMISRTPEVTCVVVDVSHEDAEVQFNWYVDGVEVHNAKTKPREEQFNRTFRVVSVLTVVHQDWLNGKEYKCKVSNKGLPAPIEKTISKTKGQPREPQVYTLPPSREEMTKNQVSLTCLVKGFYPSDIAVEWESNGQPENNYKTTPPMLDSDGSFFLYSKLTVDKSRWQQGNVFSCSVMHEALHNHYTQKSLSLSPGKLEPPPSTVSNMATVAVLVVLGAAIVTGAVVAFVMKMRRRNTGGKGGDYALAPGSQTSDLSLPDCKVMVHDPHSLA
notes: as m1; positions are Eu numbers; copies: 2 + 2

Enrichment factor (after/before sorting) (Biotin-FcγRIIB [14]): 16
Increased factor a (enrichment factor/wild-type enrichment factor) (Biotin-FcγRIIB [14]): 21.4
Increased factor 2 c Site 1 (combined/point mutation) (Biotin-FcγRIIB [16]): 4.5
Increased factor 2 c Site 2 (combined/point mutation) (Biotin-FcγRIIB [15]): 27.4
B2: human IgG2 anti-mouse CD40 surface displayed antibody, Fc mutant P271G/S298R (antibody, name in EU numbering)
light chain (with the P2A rest): DTVLTQSPALAVSPGERVTISCRASDSVSTLMHWYQQKPGQQPKLLIYLASHLESGVPARFSGSGSGTDFTLTIDPVEADDTATYYCQQSWNDPWTFGGGTKLELKRTVAAPSVFIFPPSDEQLKSGTASVVCLLNNFYPREAKVQWKVDNALQSGNSQESVTEQDSKDSTYSLSSTLTLSKADYEKHKVYACEVTHQGLSSPVTKSFNRGECGSGATNFSLLKQAGDVEENPG
heavy chain: EVQLVESDGGLVQPGRSLKLPCAASGFTFSDYYMAWVRQAPTKGLEWVASISYDGSSTYYRDSVKGRFTISRDNAKSTLYLQMDSLRSEDTATYYCGRHSSYFDYWGQGVMVTVSSASTKGPSVFPLAPCSRSTSESTAALGCLVKDYFPEPVTVSWNSGALTSGVHTFPAVLQSSGLYSLSSVVTVPSSNFGTQTYTCNVDHKPSNTKVDKTVERKCCVECPPCPAPPVAGPSVFLFPPKPKDTLMISRTPEVTCVVVDVSHEDGEVQFNWYVDGVEVHNAKTKPREEQFNRTFRVVSVLTVVHQDWLNGKEYKCKVSNKGLPAPIEKTISKTKGQPREPQVYTLPPSREEMTKNQVSLTCLVKGFYPSDIAVEWESNGQPENNYKTTPPMLDSDGSFFLYSKLTVDKSRWQQGNVFSCSVMHEALHNHYTQKSLSLSPGKLEPPPSTVSNMATVAVLVVLGAAIVTGAVVAFVMKMRRRNTGGKGGDYALAPGSQTSDLSLPDCKVMVHDPHSLA
notes: as for B1

Enrichment factor (after/before sorting) (Biotin-FcγRIIB [14]): 32.8
Increased factor a (enrichment factor/wild-type enrichment factor) (Biotin-FcγRIIB [14]): 43.8
Increased factor 2 c Site 1 (combined/point mutation) (Biotin-FcγRIIB [17]): 1.5
Increased factor 2 c Site 2 (combined/point mutation) (Biotin-FcγRIIB [15]): 56.2
B3: human IgG2 anti-mouse CD40 surface displayed antibody, Fc mutant S267E/S298R (antibody, name in EU numbering)
light chain (with the P2A rest): DTVLTQSPALAVSPGERVTISCRASDSVSTLMHWYQQKPGQQPKLLIYLASHLESGVPARFSGSGSGTDFTLTIDPVEADDTATYYCQQSWNDPWTFGGGTKLELKRTVAAPSVFIFPPSDEQLKSGTASVVCLLNNFYPREAKVQWKVDNALQSGNSQESVTEQDSKDSTYSLSSTLTLSKADYEKHKVYACEVTHQGLSSPVTKSFNRGECGSGATNFSLLKQAGDVEENPG
heavy chain: EVQLVESDGGLVQPGRSLKLPCAASGFTFSDYYMAWVRQAPTKGLEWVASISYDGSSTYYRDSVKGRFTISRDNAKSTLYLQMDSLRSEDTATYYCGRHSSYFDYWGQGVMVTVSSASTKGPSVFPLAPCSRSTSESTAALGCLVKDYFPEPVTVSWNSGALTSGVHTFPAVLQSSGLYSLSSVVTVPSSNFGTQTYTCNVDHKPSNTKVDKTVERKCCVECPPCPAPPVAGPSVFLFPPKPKDTLMISRTPEVTCVVVDVEHEDPEVQFNWYVDGVEVHNAKTKPREEQFNRTFRVVSVLTVVHQDWLNGKEYKCKVSNKGLPAPIEKTISKTKGQPREPQVYTLPPSREEMTKNQVSLTCLVKGFYPSDIAVEWESNGQPENNYKTTPPMLDSDGSFFLYSKLTVDKSRWQQGNVFSCSVMHEALHNHYTQKSLSLSPGKLEPPPSTVSNMATVAVLVVLGAAIVTGAVVAFVMKMRRRNTGGKGGDYALAPGSQTSDLSLPDCKVMVHDPHSLA
notes: as for B1
